Test results as given in paper PMC2064313 (The Journal of Cell Biology, 2006).
Numbering of substitutions follows the chain as printed. Numbers in names are those of the source.

T1: MBP-tagged FRLα C terminus (residues 612–1,094) (UniProt Q9JL26-1 612-1094)
T1 sequence: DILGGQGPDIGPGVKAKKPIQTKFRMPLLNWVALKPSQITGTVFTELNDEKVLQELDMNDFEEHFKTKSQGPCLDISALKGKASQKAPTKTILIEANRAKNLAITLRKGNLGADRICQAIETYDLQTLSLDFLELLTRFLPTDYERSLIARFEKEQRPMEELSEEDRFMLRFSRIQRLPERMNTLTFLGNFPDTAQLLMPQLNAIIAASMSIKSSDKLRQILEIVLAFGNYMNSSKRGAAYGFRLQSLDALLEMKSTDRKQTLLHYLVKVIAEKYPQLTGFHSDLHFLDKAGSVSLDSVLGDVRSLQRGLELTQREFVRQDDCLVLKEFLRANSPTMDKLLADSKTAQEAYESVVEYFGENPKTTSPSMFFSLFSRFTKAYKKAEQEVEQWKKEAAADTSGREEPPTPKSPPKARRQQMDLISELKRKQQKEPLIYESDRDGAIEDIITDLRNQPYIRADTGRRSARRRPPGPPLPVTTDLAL

T2: FRLα C terminus (residues 612–1,094), untagged (UniProt Q9JL26-1 612-1094)
T2 sequence: T1 sequence

B1: GST-tagged FRLα N terminus (residues 1–450) (domain or fragment)
chain: MGNAAGSAEQPAGPTASPPKQPAVPKQPMPAAGELEERFTRVLNCMNLPPDKVQLLSQYDNEKKWELICDQERFQVKNPPAAYIQKLKSYLDTGGVSRKVASDWMSNLGFKRRVQESTQVLRELETSLRTNHIGWVQEFLNEENRGLDVLLEYLAFAQCSVAYDMESTDSVASGAEKSKPLDQSVEDLSKAPPSSVPKSRLTIKLTPAHSRKALRNSRIVSQKDDVHVCIMCLRAIMNYQSGFSLVMNHPACVNEIALSLNNKSPRTKALVLELLAAVCLVRGGHDIILAAFDNFKEVCGEQHRFEKLMEYFRHEDSNIDFMVACMQFINIVVHSVENMNFRVFLQYEFTHLGLDLYLERLRLTESDKLQVQIQAYLDNVFDVGTLLEETETKNAVLEHMEELQEQVATLTERLRDTENDSMAKIAELEKQLSQARKELETLRERFSEST
B2: GST–N terminus T126D of FRLα (residues 1–450) (domain or fragment)
chain: B1 chain with T126D

Key:
[1] = target: T1, MBP-tagged FRLα C terminus (residues …); experiment: pull-down
[2] = target: T2, FRLα C terminus (residues 612–1,094), …; experiment: pull-down

Binder | binding result [1] | binding result [2]
B1 | binds | binds
B2 | – | binds
